Data on one molecule can be found in paper PMC12613123, “Fabrication of Disposable Thin-Film Electrodes via Shadow Mask Technique for Sensitive Point-of-Care Detection of C‑Reactive Protein, a Sepsis Biomarker”.

For the data set, the target named is T1, C-reactive protein (CRP) (UniProt P02741 19-224).
T1 sequence: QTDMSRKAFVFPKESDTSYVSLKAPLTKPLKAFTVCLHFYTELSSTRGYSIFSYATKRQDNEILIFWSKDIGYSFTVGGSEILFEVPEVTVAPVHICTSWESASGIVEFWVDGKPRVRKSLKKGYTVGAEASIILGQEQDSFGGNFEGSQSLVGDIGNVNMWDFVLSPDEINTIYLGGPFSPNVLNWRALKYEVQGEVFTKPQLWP
As to the kind of experiment: electrochemical aptasensor (CV, EIS); aptamer/MCH on gold thin-film electrode; ferro-/ferricyanide; CRP 0.02-0.9 ng/mL; Rct 1.78 to 2.8 kOhm; LOD 6.5 pg/mL (not a Kd); ferro-/ferricyanide redox couple; buffer, salt, pH and temperature not given in the held text (aptamer immobilization at 2-4 C). The following applies: chain copies: 5.

B1: CRP aptamer (44 nt) (ssDNA)
DNA: GCCTGTAAGGTGGTCGGTGTGGCGAGTGTGTTAGGAGAGATTGC
modifications: 5' HO-(CH2)6-S-S-(CH2)6 thiol linker (TCEP reduced), immobilized on gold with MCH backfill
B1: the binding result is reported as “binds”.
